Assay results taken from patent US20250215104A1 (WALDEN BIOSCIENCES, published 2025).

Legend:
[1] = target: T1, human soluble urokinase plasminogen activator receptor (suPAR) (human, UniProt Q03405 23-303, limits assumed); assay: BLI (Octet) off-rate screen of scFv clones
T1 construct: Column head says only 'human'; also called human suPAR; hsuPAR

[2] = target: T2, cynomolgus soluble urokinase plasminogen activator receptor (suPAR) (cynomolgus, UniProt Q9GK78 23-303, limits assumed); assay: BLI (Octet) off-rate screen of scFv clones
T2 construct: Column head says only 'cynomologus'; also called cynomolgus suPAR; cynomolgus uPAR
T2 sequence (Q9GK78 23-303 limits assumed): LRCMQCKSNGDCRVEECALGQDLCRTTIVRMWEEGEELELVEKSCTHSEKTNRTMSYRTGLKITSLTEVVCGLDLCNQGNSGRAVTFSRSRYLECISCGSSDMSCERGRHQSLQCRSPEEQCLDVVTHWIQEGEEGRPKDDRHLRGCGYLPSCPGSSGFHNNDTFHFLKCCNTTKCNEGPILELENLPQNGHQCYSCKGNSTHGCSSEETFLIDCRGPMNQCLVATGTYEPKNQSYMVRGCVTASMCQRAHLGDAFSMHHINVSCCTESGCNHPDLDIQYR

T1 sequence (Q03405 23-303 limits assumed): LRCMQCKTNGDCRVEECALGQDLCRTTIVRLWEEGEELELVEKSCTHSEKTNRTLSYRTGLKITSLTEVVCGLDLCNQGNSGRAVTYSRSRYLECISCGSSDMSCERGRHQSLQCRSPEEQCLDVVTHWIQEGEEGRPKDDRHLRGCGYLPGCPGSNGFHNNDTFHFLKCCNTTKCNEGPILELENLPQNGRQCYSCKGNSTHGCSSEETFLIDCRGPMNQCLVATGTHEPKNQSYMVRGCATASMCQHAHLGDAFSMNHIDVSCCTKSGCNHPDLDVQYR

Binder | koff [1] | koff [2]
suPAR_DB02_D01 (scFv, V domains shown, scFv clone from phage display) VH: QVQLVQSGAEVKKPGASVKVSCKASGYTFTDYYMHWVRQAPGQGLEWMGWIDHENGNTIYDQKFQGRVTMTRDTSTSTVYMELSSLRSEDTAVYYCARGYDVDWFVYWGQGTLVTVSS VL: DIQMTQSPSSLSASVGDRVTITCSARSSVSYMYWYQQKPGKAPKLLIYRTSNLASGVPSRFSGSGSGTDFTLTISSLQPEDFATYYCQQYHSYPPTFGGGTKVEIK | 0.003 s⁻¹ | 4.7e-07 s⁻¹
suPAR_DB02_F11 (scFv, V domains shown, scFv clone from phage display) VH: QVQLVQSGAEVKKPGASVKVSCKASGYTFTSSYMHWVRQAPGQGLEWMGWIDHENGNTIYDQKFQGRVTMTRDTSTSTVYMELSSLRSEDTAVYYCARGYDVDWFVYWGQGTLVTVSS VL: DIQMTQSPSSLSASVGDRVTITCRARSSISYMYWYQQKPGKAPKLLIYRTSNLASGVPSRFSGSGSGTDFTLTISSLQPEDFATYYCQQYHSYPPTFGGGTKVEIK | 0.00198 s⁻¹ | 0.000613 s⁻¹
suPAR_DB02_F08 (scFv, V domains shown, scFv clone from phage display) VH: QVQLVQSGAEVKKPGASVKVSCKASGYTFTGYYIHWVRQAPGQGLEWMGWIDPENGNTIYAQKFQGRVTMTRDTSTSTVYMELSSLRSEDTAVYYCARGYDVDWFVYWGQGTLVTVSS VL: DIQMTQSPSSLSASVGDRVTITCSASSSISYMYWYQQKPGKAPKLLIYRTSNLASGVPSRFSGSGSGTDFTLTISSLQPEDFATYYCQQYHSYPPTFGGGTKVEIK | 0.0021 s⁻¹ | 2.47e-05 s⁻¹
suPAR_DB02_C06 (scFv, V domains shown, scFv clone from phage display) VH: QVQLVQSGAEVKKPGASVKVSCKASGFNITDYYMHWVRQAPGQGLEWMGWIDHENGNTIYDQKFQGRVTMTRDTSTSTVYMELSSLRSEDTAVYYCARGYDVDWFVYWGQGTLVTVSS VL: DIQMTQSPSSLSASVGDRVTITCSASQSVSYMYWYQQKPGKAPKLLIYRTSNLASGVPSRFSGSGSGTDFTLTISSLQPEDFATYYCQQYHSYPPTFGGGTKVEIK | 0.00475 s⁻¹ | 0.000141 s⁻¹
suPAR_DB02_G09 (scFv, V domains shown, scFv clone from phage display) VH: QVQLVQSGAEVKKPGASVKVSCKASGFTIKDYYMHWVRQAPGQGLEWMGWIDPSNGATNSAQNFQGRVTMTRDTSTSTVYMELSSLRSEDTAVYYCARGYDVDWFVYWGQGTLVTVSS VL: DIQMTQSPSSLSASVGDRVTITCRASSSVSYMYWYQQKPGKAPKLLIYRTSNLASGVPSRFSGSGSGTDFTLTISSLQPEDFATYYCQQYHSYPPTFGGGTKVEIK | 0.00733 s⁻¹ | 0.00025 s⁻¹
suPAR_DB02_E09 (scFv, V domains shown, scFv clone from phage display) VH: QVQLVQSGAEVKKPGASVKVSCKASGFNIKDYYIHWVRQAPGQGLEWMGWIDPNSGGTNYAQKFQGRVTMTRDTSTSTVYMELSSLRSEDTAVYYCARGYDVDWFVYWGQGTLVTVSS VL: DIQMTQSPSSLSASVGDRVTITCSARSSVSYMYWYQQKPGKAPKLLIYRTSNLASGVPSRFSGSGSGTDFTLTISSLQPEDFATYYCQQYHSYPPTFGGGTKVEIK | 0.00473 s⁻¹ | 0.00021 s⁻¹
suPAR_DB02_F09 (scFv, V domains shown, scFv clone from phage display) VH: QVQLVQSGAEVKKPGASVKVSCKASGYTFTGYYMHWVRQAPGQGLEWMGWIDPEGGSTIYDQKFQGRVTMTRDTSTSTVYMELSSLRSEDTAVYYCAGGYDVDWFVYWGQGTLVTVSS VL: DIQMTQSPSSLSASVGDRVTITCSARSSVSYMYWYQQKPGKAPKLLIYRTSNLASGVPSRFSGSGSGTDFTLTISSLQPEDFATYYCQQYHSYPPTFGGGTKVEIK | 0.00166 s⁻¹ | 0.000624 s⁻¹
suPAR_DB02_E05 (scFv, V domains shown, scFv clone from phage display) VH: QVQLVQSGAEVKKPGASVKVSCKASGFNIKDYYIHWVRQAPGQGLEWMGWVDPSSGATDYAQKFQGRVTMTRDTSTSTVYMELSSLRSEDTAVYYCARGYDVDWFVYWGQGTLVTVSS VL: DIQMTQSPSSLSASVGDRVTITCSARSSVSYMYWYQQKPGKAPKLLIYRTSNLASGVPSRFSGSGSGTDFTLTISSLQPEDFATYYCQQYHSYPPTFGGGTKVEIK | 0.00239 s⁻¹ | 0.00146 s⁻¹
suPAR_DB02_F07 (scFv, V domains shown, scFv clone from phage display) VH: QVQLVQSGAEVKKPGASVKVSCKASGYTFTGYYVHWVRQAPGQGLEWMGWIDPEGGNTIYDQKFQGRVTMTRDTSTSTVYMELSSLRSEDTAVYYCARGYDVDWFVYWGQGTLVTVSS VL: DIQMTQSPSSLSASVGDRVTITCRARQSVSYMYWYQQKPGKAPKLLIYRTSNLQSGVPSRFSGSGSGTDFTLTISSLQPEDFATYYCQQYHSYPPTFGGGTKVEIK | 0.002 s⁻¹ | 0.000384 s⁻¹
suPAR_DB02_H02 (scFv, V domains shown, scFv clone from phage display) VH: QVQLVQSGAEVKKPGASVKVSCKASGYTFTGYYLHWVRQAPGQGLEWMGWIDPENGSTIYDQKFQGRVTMTRDTSTSTVYMELSSLRSEDTAVYYCARGYDVDWFVYWGQGTLVTVSS VL: DIQMTQSPSSLSASVGDRVTITCSARSSVSYMYWYQQKPGKAPKLLIYRTSNLASGVPSRFSGSGSGTDFTLTISSLQPEDFATYYCQQYHSYPPTFGGGTKVEIK | 0.00579 s⁻¹ | 0.000498 s⁻¹
suPAR_DB02_G10 (scFv, V domains shown, scFv clone from phage display) VH: QVQLVQSGAEVKKPGASVKVSCKASGYTFTNYYMHWVRQAPGQGLEWMGWIDPENGSTIYDQKFQGRVTMTRDTSTSTVYMELSSLRSEDTAVYYCARGYDVDWFVYWGQGTLVTVSS VL: DIQMTQSPSSLSASVGDRVTITCRARQSVSYMYWYQQKPGKAPKLLIYRTSNLETGVPSRFSGSGSGTDFTLTISSLQPEDFATYYCQQYHSYPPTFGGGTKVEIK | 0.00562 s⁻¹ | 0.00043 s⁻¹
suPAR_DB02_G11 (scFv, V domains shown, scFv clone from phage display) VH: QVQLVQSGAEVKKPGASVKVSCKASGDTFTGYYMHWVRQAPGQGLEWMGWIDHEGGNTIYAQKFQGRVTMTRDTSTSTVYMELSSLRSEDTAVYYCARGYDVDWFVYWGQGTLVTVSS VL: DIQMTQSPSSLSASVGDRVTITCSARSSVSYMYWYQQKPGKAPKLLIYRTSNLASGVPSRFSGSGSGTDFTLTISSLQPEDFATYYCQQYHSYPPTFGGGTKVEIK | 0.00561 s⁻¹ | 0.00013 s⁻¹
suPAR_DB02_C07 (scFv, V domains shown, scFv clone from phage display) VH: QVQLVQSGAEVKKPGASVKVSCKASGYTFTDSYIHWVRQAPGQGLEWMGWIDANNGDTNYAERFQGRVTMTRDTSTSTVYMELSSLRSEDTAVYYCARGYDVDWFVYWGQGTLVTVSS VL: DIQMTQSPSSLSASVGDRVTITCSARSSVSYMYWYQQKPGKAPKLLIYRTSNLASGVPSRFSGSGSGTDFTLTISSLQPEDFATYYCQQYHSYPPTFGGGTKVEIK | 0.0026 s⁻¹ | –
suPAR_DB02_E11 (scFv, V domains shown, scFv clone from phage display) VH: QVQLVQSGAEVKKPGASVKVSCKASGGTFSNYYMHWVRQAPGQGLEWMGWIDHENGNTIYDQKFQGRVTMTRDTSTSTVYMELSSLRSEDTAVYYCARGYDVDWFVYWGQGTLVTVSS VL: DIQMTQSPSSLSASVGDRVTITCRARQSVSYMYWYQQKPGKAPKLLIYRTSSLASGVPSRFSGSGSGTDFTLTISSLQPEDFATYYCQQYHSYPPTFGGGTKVEIK | 0.00423 s⁻¹ | 0.000376 s⁻¹
suPAR_DB02_F04 (scFv, V domains shown, scFv clone from phage display) VH: QVQLVQSGAEVKKPGASVKVSCKASGYTLTSYYVHWVRQAPGQGLEWMGWIDPKSGDTKYAHKFQGRVTMTRDTSTSTVYMELSSLRSEDTAVYYCARGYDVDWFVYWGQGTLVTVSS VL: DIQMTQSPSSLSASVGDRVTITCSARSSVSYMYWYQQKPGKAPKLLIYRTSNLASGVPSRFSGSGSGTDFTLTISSLQPEDFATYYCQQYHSYPPTFGGGTKVEIK | 0.00384 s⁻¹ | 0.000453 s⁻¹
suPAR_DB02_D04 (scFv, V domains shown, scFv clone from phage display) VH: QVQLVQSGAEVKKPGASVKVSCKASGFTIKDYYMHWVRQAPGQGLEWMGWIDPDSGGTNYAEKFQGRVTMTRDTSTSTVYMELSSLRSEDTAVYYCARGYDVDWFVYWGQGTLVTVSS VL: DIQMTQSPSSLSASVGDRVTITCRARQSVSYMYWYQQKPGKAPKLLIYRTSNLASGVPSRFSGSGSGTDFTLTISSLQPEDFATYYCQQYHSYPPTFGGGTKVEIK | 0.0041 s⁻¹ | 0.000281 s⁻¹
suPAR_DB02_F12 (scFv, V domains shown, scFv clone from phage display) VH: QVQLVQSGAEVKKPGASVKVSCKASGDMFTGYYLHWVRQAPGQGLEWMGWIDHENGNTIYDQKFQGRVTMTRDTSTSTVYMELSSLRSEDTAVYYCARGYDVDWFVYWGQGTLVTVSS VL: DIQMTQSPSSLSASVGDRVTITCSARSSVSYMYWYQQKPGKAPKLLIYRTSSLASGVPSRFSGSGSGTDFTLTISSLQPEDFATYYCQQYHSYPPTFGGGTKVEIK | 0.00494 s⁻¹ | 9.82e-05 s⁻¹
suPAR_DB02_F06 (scFv, V domains shown, scFv clone from phage display) VH: QVQLVQSGAEVKKPGASVKVSCKASGFNFTDYYIHWVRQAPGQGLEWMGWIDPNSGSTNYAQNFQGRVTMTRDTSTSTVYMELSSLRSEDTAVYYCARGYMVDWFVYWGQGTLVTVSS VL: DIQMTQSPSSLSASVGDRVTITCSARSSVSYMYWYQQKPGKAPKLLIYRTSNLASGVPSRFSGSGSGTDFTLTISSLQPEDFATYYCQQYHSYPPTFGGGTKVEIK | 0.00495 s⁻¹ | 0.000174 s⁻¹
suPAR_DB02_G05 (scFv, V domains shown, scFv clone from phage display) VH: QVQLVQSGAEVKKPGASVKVSCKASGYTFTGHYMHWVRQAPGQGLEWMGWIDPEGGNTIYAQKFQGRVTMTRDTSTSTVYMELSSLRSEDTAVYYCARGYDVDWFVYWGQGTLVTVSS VL: DIQMTQSPSSLSASVGDRVTITCSASSSVSYMYWYQQKPGKAPKLLIYRTSNLASGVPSRFSGSGSGTDFTLTISSLQPEDFATYYCQQYHSYPPTFGGGTKVEIK | 0.00242 s⁻¹ | 0.000521 s⁻¹
suPAR_DB02_C09 (scFv, V domains shown, scFv clone from phage display) VH: QVQLVQSGAEVKKPGASVKVSCKASGYTFTGYYMHWVRQAPGQGLEWVGLINPSDGYTTYAQKFQGRVTMTRDTSTSTVYMELSSLRSEDTAVYYCARGYDVDWFVYWGQGTLVTVSS VL: DIQMTQSPSSLSASVGDRVTITCSARSSVSYMYWYQQKPGKAPKLLIYRTSNLASGVPSRFSGSGSGTDFTLTISSLQPEDFATYYCQQYHSYPPTFGGGTKVEIK | 0.00387 s⁻¹ | 0.000335 s⁻¹
suPAR_DB02_D06 (scFv, V domains shown, scFv clone from phage display) VH: QVQLVQSGAEVKKPGASVKVSCKASGDTFANYYMHWVRQAPGQGLEWMGWIIPNSGDTNYAQKFQGRVTMTRDTSTSTVYMELSSLRSEDTAVYYCARGYDVDWFVYWGQGTLVTVSS VL: DIQMTQSPSSLSASVGDRVTITCSARSSVSYMYWYQQKPGKAPKLLIYRTSSLQSGVPSRFSGSGSGTDFTLTISSLQPEDFATYYCQQYHSYPPTFGGGTKVEIK | 0.00416 s⁻¹ | 0.00051 s⁻¹
